Assay results from PMC4917396.
Where “and” joins values, the source holds several entries; their conditions need not be identical. Equal entries are not always repeated.

Tests used:
[1] = molecular target: recombinant full-length murine amelogenin without tag (rpM179) (mouse); experiment: in situ AFM with volume analysis of adsorbates
[2] = molecular target: recombinant full-length murine amelogenin without tag (rpM179) (mouse); experiment: DLS
[3] = molecular target: recombinant full-length murine amelogenin without tag (rpM179) (mouse); experiment: in situ AFM coverage with Hill fit
[4] = molecular target: recombinant full-length murine amelogenin without tag (rpM179) (mouse); experiment: in situ AFM with volume analysis of adsorbates; remark: listed apart in the source
[5] = molecular target: recombinant full-length murine amelogenin without tag (rpM179) (mouse); experiment: in situ AFM with volume analysis of adsorbates; remark: listed apart in the source
[6] = molecular target: recombinant full-length murine amelogenin with an uncleavable N-terminal histidine tag (rp(H)M180) (mouse); experiment: in situ AFM coverage with Hill fit
[7] = molecular target: recombinant full-length murine amelogenin with an uncleavable N-terminal histidine tag (rp(H)M180) (mouse); experiment: in situ AFM with volume analysis of adsorbates

| Substance | stoichiometry N [1] [monomers] | stoichiometry N [2] [monomers] | ln Ka [3] [Ka in M^-n] | stoichiometry N [4] [monomers] | stoichiometry N [5] | ln Ka [6] [Ka in M^-n] | stoichiometry N [7] [monomers] |
| --- | --- | --- | --- | --- | --- | --- | --- |
| recombinant full-length murine amelogenin without tag (rpM179) (natural protein) | 150 | 200 | 3.35 | 25 | 100 monomers and 200 monomers |  |  |
| recombinant full-length murine amelogenin with an uncleavable N-terminal histidine tag (rp(H)M180) (natural protein) |  |  |  |  |  | 76.2 | 25 |
